Experimental data reported in patent US20250332278A1, “MULTIVALENT DISPLAY OF APOAI PEPTIDE ON NANOPARTICLES AGAINST ATHEROSCLEROSIS” (The Regents of the University of California, priority 2022, published 2025).

What was measured:
[1] = Dynamic light scattering of VLP/VNP conjugates; type: physicochemical; settings: 1 mg/mL in 0.01 M KP buffer
Procedure: Dynamic Light Scattering (DLS). The hydrodynamic diameter of VLPs/VNPs conjugates were probed using a Zetasizer Nano ZSP/Zen5600 instrument (Malvern Panalytical, Malvern, UK). Particle hydrodynamic diameter was calculated as the weighted mean of the intensity distribution and samples were analyzed at 1 mg/mL concentration in 0.01 M KP buffer.

SVEC cells [2] = assay: ROS assay; type: cell-based; settings: 8 h treatment (0.5 μM particles or matched free peptide), then ox-LDL 4 h
Procedure: ROS assay. SVEC cells (ATCC) were seeded in four-compartment 35-mm CELLview glass-bottom dishes or 96-well plates at 6×10^4 cells/mL in 500 μL DMEM and were allowed to reach ˜80% confluence. The medium was then removed, and the cells were washed once with PBS before incubation with VLPs/VNPs for 8 h. Applicant then added 100 μg/mL ox-LDL for 4 h to induce oxidative stress and detected ROS using a CellROX Green Reagent Kit. Images were captured using a Nikon AiR confocal microscope with a 20×, 0.75 numerical aperture dry objective.

SVEC cells [3] = assay: Wound healing assay under oxidative stress; type: cell-based; settings: 0.5 μM, 8-h treatment, 4-h 50 μg/mL ox-LDL, versus control (serum-free medium)
Procedure: Wound healing assay. SVEC cell migration was investigated using a Radius 96-well kit (Cell Bio Labs). Applicant seeded 3×10^4 cells in 200 μL DMEM per well and allowed the cells to reach ˜80% confluence. After removing the Radius Gel, cells were allowed to migrate for 24 h in the presence of various treatments. Bright-field phase contrast images were acquired after 0, 12 and 24 h using an EVOS FL microscope fitted with a 10× objective (n=6 cells per group). Percentage wound closure was calculated by tracing the wound perimeter in ImageJ to calculate the area at t=12 or 24 h and dividing by the initial starting area at t=0 h.
Applicant therefore evaluated the effect of T-4FN on wound healing using SVEC cells.

[4] = tested on: J774 foam cells (ABCA1-mediated cholesterol efflux); assay: J774 cholesterol efflux assay; type: cell-based
Procedure: J774 Cholesterol efflux assay. Cholesterol efflux was measured from J774 cells (ATCC) as previously described.^23 Briefly, J774 cells were seeded in 96-well plates at 1×10^5 cells/100 μL in DMEM (Corning) with 10% (v/v) fetal bovine serum (FBS) and 1% (w/v) penicillin-streptomycine (P/S). Cells were incubated until they reached ˜80% confluence. After two rinses with FBS-free DMEM containing 1% (w/v) P/S they were incubated for 48 h in 200 μL FBS-free DMEM containing 40 μg/mL acetylated low-density lipoprotein (AcLDL), 2 μg/mL Sandoz inhibitor, 1% (w/v) P/S, and 5% (v/v) human lipoprotein-deficient serum (LPDS) to produce foam cells. Excess lipids were removed by two rinses as above, and foam cells were equilibrated for 12 h in 200 μL FBS-free DMEM, 2 μg/mL Sandoz inhibitor, 0.3 mM CPT-cAMP, 1% (w/v) P/S, and 5% (v/v) human LPDS. After two further rinses, cholesterol efflux was initiated by adding different VLP/VNP or peptide treatments in FBS-free DMEM containing 1% (w/v) P/S and 5% (v/v) human LPDS and incubating for 15 h. The medium was then collected, centrifuged (1000×g, 10 min, 4° C.) and the cholesterol content of the supernatant was determined using the Amplex assay kit. Cells were washed three times with ice-cold PBS, lysed using 200 μL of Cytobuster lysis buffer, and the cholesterol content of the lysate was determined using the Amplex assay kit. Cholesterol efflux was calculated by dividing the amount of cholesterol in the medium by the total cholesterol content of the medium and lysate.

[5] = target: ATP-binding cassette transporter A1 (ABCA1) on J774 foam cells (UniProt P41233); assay: cell-based or functional assay
[6] = BODIPY-cholesterol binding assay (DLS and fluorescence); settings: for PDI after incubation with BODIPY-cholesterol / Zav after incubation with BODIPY-cholesterol: 20 uM BODIPY-cholesterol; for PDI after incubation with BODIPY-cholesterol: 2 h at 37° C.; for size change / cholesterol binding on incubation with BODIPY-cholesterol: relative to cholesterol-free controls
Procedure: BODIPY-Cholesterol Binding assay. A fluorescent cholesterol, BODIPY-cholesterol or 23-(dipyrrometheneboron difluoride)-24-norcholesterol was used to examine the HDL biomimics' ability to uptake cholesterol. VNP samples (500 μg) and equimolar HDL were incubated with 20 uM BODIPY-cholesterol for 2 hours at 37° C. on a shaker at 150 rpm in 0.5 mL of 10 mM KP/DMSO. After incubation, samples were purified by centrifuge using 100 kDa molecular-weight cutoff Amicon spin-filters to remove free, unbound cholesterol. Samples were analyzed for size on DLS (see above) and fluorescence before and after BODIPY-cholesterol binding using 480/508 nm excitation/emission parameters on a Tecan Plate Reader.
To investigate the ability of the TMV particles to bind cholesterol, Applicant mixed them with fluorescent BODIPY cholesterol for 2 h at 37° C. in 0.01M KP/DMSO (50:50).
The cholesterol-bound nanoparticles were separated from free cholesterol by centrifugation in spin filters with a 100-kDa cutoff. Samples without cholesterol were incubated as a negative control. Purified fractions were analyzed by DLS and fluorimetry.

J774 foam cells = assay: TMV-ApoAI distribution during cholesterol efflux from J774 foam cells (confocal fluorescence microscopy); type: cell-based; settings: 0.5 μM 5FAM-labeled particles, 12 h
Procedure: TMV-ApoAI distribution during cholesterol efflux from J774 foam cells. Applicant seeded 1×10^5 J774 cells in 500 μL DMEM containing 10% (v/v) FBS and 1% (w/v) P/S into each zone of a four-compartment 35-mm CELLview glass-bottom dish, and allowed them to reach ˜80% confluence. Cells were rinsed twice with 500 μL FBS-free DMEM containing 1% (w/v) P/S and incubated for 48 h in 200 μL FBS-free DMEM containing 40 μg/mL of fluorescence-labeled acetylated low-density lipoprotein (Dil-AcLDL), 2 μg/mL Sandoz inhibitor, 1% (w/v) P/S, and 5% (v/v) human LPDS to produce labeled foam cells. After two rinses as above, foam cells were equilibrated for 12 h in 200 μL FBS-free DMEM containing 2 μg/mL Sandoz inhibitor, 0.3 mM CPT-cAMP, 1% (w/v) P/S, and 5% (v/v) human LPDS. After two further rinses, the cells were treated with 100 μL of 5FAM-labeled treatments and controls in FBS-free DMEM containing 1% (w/v) P/S and 5% (v/v) human LPDS. After 12 h, the cells were washed twice with 500 μL PBS and then fixed for 10 minutes at room temperature using a PBS solution containing 10% (w/v) PFA, 25% (w/v) glutaraldehyde. Cells were then twice washed with PBS and subsequently stained for 45 min with 300 μL of wheat-germ agglutinin AlexaFluor 647 (WGA-647) prepared in PBS and 5% (v/v) goat serum at a 1:500 dilution. Cells were then twice washed with PBS and then stained with 300 μL DAPI dye (5 μg/mL in PBS) for 20 min. Cells were washed twice with PBS and then imaged using a Nikon AiR confocal microscope with a 20×, 0.75 numerical aperture dry objective.
A fluorescently labeled T-4FN-5FAM was used to promote cholesterol efflux from fluorescently-labeled foam cells (FIG. 5A and FIG. 15B). Cholesterol and T-4FN-5FAM fluorescence was quantified using Nikon AR Elements Analysis software's 3D volume viewer tool and plotted in a bar graph (FIG. 5C and FIG. 5D).

Sequence of UniProt P41233 (P41233 whole entry): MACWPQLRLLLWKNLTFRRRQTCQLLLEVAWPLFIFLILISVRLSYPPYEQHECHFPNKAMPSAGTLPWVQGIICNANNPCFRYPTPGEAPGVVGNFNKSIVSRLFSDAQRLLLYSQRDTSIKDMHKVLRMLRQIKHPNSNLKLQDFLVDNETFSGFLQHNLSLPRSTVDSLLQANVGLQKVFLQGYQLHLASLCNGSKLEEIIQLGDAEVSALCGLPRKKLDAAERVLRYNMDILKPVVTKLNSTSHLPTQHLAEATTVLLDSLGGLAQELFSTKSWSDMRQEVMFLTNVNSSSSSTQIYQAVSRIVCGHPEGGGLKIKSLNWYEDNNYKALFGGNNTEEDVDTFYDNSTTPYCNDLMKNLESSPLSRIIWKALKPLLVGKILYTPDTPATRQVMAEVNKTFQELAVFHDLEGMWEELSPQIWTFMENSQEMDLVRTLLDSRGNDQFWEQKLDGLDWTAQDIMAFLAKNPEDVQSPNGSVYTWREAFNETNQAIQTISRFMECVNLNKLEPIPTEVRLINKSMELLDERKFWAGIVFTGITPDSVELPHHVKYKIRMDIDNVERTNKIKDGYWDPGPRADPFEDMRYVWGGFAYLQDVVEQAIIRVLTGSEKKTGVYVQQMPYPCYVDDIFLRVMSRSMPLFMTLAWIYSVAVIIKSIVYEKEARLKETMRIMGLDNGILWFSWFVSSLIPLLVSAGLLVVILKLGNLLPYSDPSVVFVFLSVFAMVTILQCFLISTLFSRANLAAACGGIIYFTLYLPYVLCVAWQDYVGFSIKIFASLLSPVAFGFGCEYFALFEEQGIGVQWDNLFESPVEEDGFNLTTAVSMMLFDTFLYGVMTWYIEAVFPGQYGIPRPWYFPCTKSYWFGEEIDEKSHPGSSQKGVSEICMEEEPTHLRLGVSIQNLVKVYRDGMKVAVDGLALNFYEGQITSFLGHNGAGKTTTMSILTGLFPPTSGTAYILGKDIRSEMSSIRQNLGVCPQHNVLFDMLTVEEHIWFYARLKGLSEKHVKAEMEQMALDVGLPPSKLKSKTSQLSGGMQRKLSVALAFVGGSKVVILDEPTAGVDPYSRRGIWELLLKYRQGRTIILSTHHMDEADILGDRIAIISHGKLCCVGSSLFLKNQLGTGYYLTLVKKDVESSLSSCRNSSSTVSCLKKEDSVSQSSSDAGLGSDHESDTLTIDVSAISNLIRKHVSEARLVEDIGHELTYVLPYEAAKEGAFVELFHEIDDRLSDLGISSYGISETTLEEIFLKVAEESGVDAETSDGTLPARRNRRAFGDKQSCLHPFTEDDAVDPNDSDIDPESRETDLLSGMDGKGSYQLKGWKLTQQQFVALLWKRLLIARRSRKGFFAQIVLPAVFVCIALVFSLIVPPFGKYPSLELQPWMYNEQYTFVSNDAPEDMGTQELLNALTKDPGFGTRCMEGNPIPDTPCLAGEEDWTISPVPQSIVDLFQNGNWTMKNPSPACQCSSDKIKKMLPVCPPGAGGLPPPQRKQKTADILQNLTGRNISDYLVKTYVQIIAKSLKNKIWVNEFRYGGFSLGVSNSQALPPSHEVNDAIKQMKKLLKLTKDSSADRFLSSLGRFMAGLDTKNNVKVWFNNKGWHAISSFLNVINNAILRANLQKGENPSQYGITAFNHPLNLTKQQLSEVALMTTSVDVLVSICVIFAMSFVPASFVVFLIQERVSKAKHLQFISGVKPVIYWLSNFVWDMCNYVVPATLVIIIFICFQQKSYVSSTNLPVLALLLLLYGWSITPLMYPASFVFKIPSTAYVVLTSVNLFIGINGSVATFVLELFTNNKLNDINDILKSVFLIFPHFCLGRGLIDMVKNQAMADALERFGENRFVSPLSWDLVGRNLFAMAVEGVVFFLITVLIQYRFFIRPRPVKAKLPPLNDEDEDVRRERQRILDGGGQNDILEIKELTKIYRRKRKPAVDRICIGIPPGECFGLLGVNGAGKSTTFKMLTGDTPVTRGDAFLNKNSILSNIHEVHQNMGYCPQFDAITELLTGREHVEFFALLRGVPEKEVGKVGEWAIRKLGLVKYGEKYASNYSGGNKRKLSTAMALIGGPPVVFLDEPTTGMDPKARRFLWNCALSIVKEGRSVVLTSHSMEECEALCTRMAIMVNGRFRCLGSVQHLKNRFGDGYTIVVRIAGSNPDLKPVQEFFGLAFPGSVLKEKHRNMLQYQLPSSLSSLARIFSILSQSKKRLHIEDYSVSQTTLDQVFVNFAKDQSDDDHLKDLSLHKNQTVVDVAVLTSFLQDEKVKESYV

Qβ: 30-nm spherical virus-like particle with 180 identical coat protein units (SEQ ID NO: 6)
PDI (DLS) [1]: 0.06
Zav (hydrodynamic diameter, DLS) [1]: ~30.4 nm

CGVLESFKASFLSALEEWTKKLQ [23MJ]
ROS production (mitigation) (SVEC cells [2]): did not mitigate ROS

CSGGGDWFKAFYDKVAEKFKEAF [4FN]
increase in wound closure after 24 h (SVEC cells [3]): 3.20 fold
cholesterol efflux ([4]; upregulated ABCA1 conditions): most potent peptide

TMV-4FN conjugate (TMV-Lys nanoparticle displaying ApoAI peptide 4FN through an SM(PEG)4 linker) (from UniProt P69687 2-157)
cholesterol efflux from J774 foam cells under upregulated ABCA1 conditions (fold (against TMV-4FC)) [5]: 2.5

B1: T-4FN: TMV-Lys nanoparticle with 4FN ApoAI peptide conjugated to surface lysines via SM(PEG)4 maleimide-thiol chemistry (conjugate)
chain: SYSITTPSQFVFLSSAWADPIELINLCTNALGNQFQTQQARTVVQRQFSEVWKPSPQVTVRFPDSDFKVYRYNAVLDPLVTALLGAFDTRNRIIEVENQANPTTAETLDATRRVDDATVAIRSAINNLIVELIRGTGSYNRSSFESSSGLVWTSGPK
peptide: CSGGGDWFKAFYDKVAEKFKEAF
increase in wound closure after 12 h (SVEC cells [3]): 6.41 fold
increase in wound closure after 24 h (SVEC cells [3]): 4.70 fold
PDI (DLS) [1]: 0.266
Zav (hydrodynamic diameter, DLS) [1]: ~255.8 nm
PDI after incubation with BODIPY-cholesterol [6]: 0.145
Zav after incubation with BODIPY-cholesterol ([6]; 2 h at 37° C. in 0.01M KP/DMSO): 708.8 nm
change in fluorescence after BODIPY-cholesterol binding ([6]; 480/508 nm, signal after minus before binding): most intense signal
PDI before incubation with BODIPY-cholesterol ([6]; cholesterol-free control): 0.193
Zav before incubation with BODIPY-cholesterol ([6]; cholesterol-free control, 2 h at 37° C. in 0.01M KP/DMSO): 220.5 nm
size change / cholesterol binding on incubation with BODIPY-cholesterol [6]: greatest change
ROS production (mitigation) (SVEC cells [2]): reducing the ROS signal to near the level of the negative media control
cholesterol efflux when ABCA1 receptor is not upregulated ([4]; homeostatic ABCA1 conditions, FIG. 4D): drastically decreases
cholesterol efflux potency relative to TMV-4FC ([4]; upregulated ABCA1 conditions, FIGS. 4B-4C): ~2.5 fold
Dil-LDL cholesterol fluorescence intensity (cell-associated) (J774 foam cells): significantly lower
fluorescence intensity of 5FAM (cell-associated) (J774 foam cells): significantly higher
localization of particles on foam cells (J774 foam cells): extracellular, forming a dense layer on the plasma membrane

B2: TMV (protein)
chain: MSYSITTPSQFVFLSSAWADPIELINLCTNALGNQFQTQQARTVVQRQFSEVWKPSPQVTVRFPDSDFKVYRYNAVLDPLVTALLGAFDTRNRIIEVENQANPTTAETLDATRRVDDATVAIRSAINNLIVELIRGTGSYNRSSFESSSGLVWTSGPK
increase in wound closure after 12 h (SVEC cells [3]): 2.58 fold
increase in wound closure after 24 h (SVEC cells [3]): 3.15 fold
PDI (DLS) [1]: 0.230
Zav (hydrodynamic diameter, DLS) [1]: ~203.1 nm
PDI after incubation with BODIPY-cholesterol [6]: 0.158
Zav after incubation with BODIPY-cholesterol ([6]; 2 h at 37° C. in 0.01M KP/DMSO): 293.6 nm
PDI before incubation with BODIPY-cholesterol ([6]; cholesterol-free control): 0.240
size change / cholesterol binding on incubation with BODIPY-cholesterol [6]: inherent affinity for cholesterol
Dil-LDL cholesterol fluorescence intensity (cell-associated) (J774 foam cells): promotes a baseline level of cholesterol efflux
localization of particles on foam cells (J774 foam cells): mostly observed within the foam cells

B3: Qβ-4FN: bacteriophage Qβ VLP conjugated to ApoAI peptide 4FN via SM(PEG)4 (conjugate)
chain: AKLETVTLGNIGKDGKQTLVLNPRGVNPTNGVASLSQAGAVPALEKRVTVSVSQPSRNRKNYKVQVKIQNPTACTANGSCDPSVTRQAYADVTFSFTQYSTDEERAFVRTELAALLASPLLIDAIDQLNPAY
peptide: CSGGGDWFKAFYDKVAEKFKEAF
PDI (DLS) [1]: 0.177
Zav (hydrodynamic diameter, DLS) [1]: ~40.5 nm
cholesterol efflux ([4]; upregulated ABCA1 conditions): does not display significant cholesterol efflux
